± gives the uncertainty stated by the source.
Test: self-splicing fitness, log relative to wild type (ln ratio); higher = more splicing; Tetrahymena group I intron in knt gene, E. coli kanamycin selection, DiMSum; sequences stand for … in CUCUCU…GGAGGGAAAAGUUAUCAGGCAUGCACCUGGUAGCUAGUCUUUAAACCAAUAGAUUGCAUCGGUUUAAAAGGCAAGACCGUCAAAUUGCGGGAAAGGGGUCAACAGCCGUUCAGUACCAAGUCUCAGGGGAAACUUUGAGAUGGCCUUGCAAAGGGUAUGGUAAUAAGCUGACGGACAUGGUCCUAACCACGCAGCCAAGUCCUAAGUCAACAGAUCUUCUGUUGAUAUGGAUGCAGUUCACAGACUAAAUGUCGGUCGGGGAAGAUGUAUUCUUCUCAUAAGAUAUAGUCGGACCUCUCCUUAAUGGGAGCUAGCGGAUGAAGUGAUGCAACACUGGAGCCGCUGGGAACUAAUUUGUAUGCGAAAGUAUAUUGAUUAGUUUUGGAGUACUCGUGGUCG
Outline: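 Pooled colonies went to amplicon sequencing on an Illumina HiSeq 2500 after six replicate transformations. The plates were LB agar with 100 μg/mL carbenicillin, 50 μM IPTG and 0.2% rhamnose, with or without 25 μg/mL kanamycin, incubated overnight at 37°C or 30°C. The E. coli BL21(DE3) library had all eight P1ex-region intron nucleotides randomised, the intron placed in the knt kanamycin-resistance gene on pET-22b(+). DiMSum fitness is the error-weighted combination of replicate fold changes, kanamycin against none, normalised to wild type.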

Sequence	self-splicing fitness (ln) (30 °C)	self-splicing fitness (ln) (37 °C)
AUCGAGCAAUAUUACGAUCG	-2.9 ± 0.22	-3.06 ± 0.34
UGCGAGCAAUAUUACGGGAU	-3.78 ± 0.35	-2.21 ± 0.28
GCCCAGCAAUAUUACGCGAG	-2.72 ± 0.11	-1.73 ± 0.13
GUGUAGCAAUAUUACGCGGU	-2.85 ± 0.34	-0.66 ± 0.41
GAAAAGCAAUAUUACGCACA	-0.807 ± 0.093	-0.0907 ± 0.14
UUCGAGCAAUAUUACGCACA	-1.76 ± 0.25	-1.45 ± 0.28
UCUAAGCAAUAUUACGACAU	-3.444 ± 0.025	-2.23 ± 0.037
UGAAAGCAAUAUUACGGAGU	-3.82 ± 0.28	-2.84 ± 0.19
GAGUAGCAAUAUUACGCGGU	-3.68 ± 0.31	-2.78 ± 0.48
CGACAGCAAUAUUACGCGAC	–	-2.98 ± 0.26
GAUCAGCAAUAUUACGUACA	-0.607 ± 0.12	0.177 ± 0.15
AGUGAGCAAUAUUACGGCGA	-1.18 ± 0.14	-2 ± 0.21
GCUGAGCAAUAUUACGCUAU	-3.25 ± 0.19	-3.59 ± 0.28
CAGCAGCAAUAUUACGUUGG	-1.91 ± 0.072	-0.788 ± 0.084
UGCCAGCAAUAUUACGUAAG	-2 ± 0.067	-1.24 ± 0.083
UGUCAGCAAUAUUACGAACA	-0.481 ± 0.068	0.521 ± 0.086
GAGUAGCAAUAUUACGAGGG	-3.5 ± 0.44	-1.94 ± 0.28
CACCAGCAAUAUUACGUCGU	-3.78 ± 0.13	-1.83 ± 0.097
CUACAGCAAUAUUACGAUUU	-4.36 ± 0.22	-1.95 ± 0.14
CUACAGCAAUAUUACGGCAU	-3.6 ± 0.23	-2.34 ± 0.23
UUCCAGCAAUAUUACGGGCG	-0.245 ± 0.081	0.254 ± 0.097
CCCUAGCAAUAUUACGUAAA	–	-2.22 ± 0.32
AGAAAGCAAUAUUACGGUUC	-2.72 ± 0.12	-1.83 ± 0.13
CGUAAGCAAUAUUACGGGAC	-2.9 ± 0.29	-2.47 ± 0.41
ACUUAGCAAUAUUACGAAUU	-2.29 ± 0.1	-0.888 ± 0.14

Sequence	self-splicing fitness (ln) (30 °C)	self-splicing fitness (ln) (37 °C)
GUAUAGCAAUAUUACGAGUA	-1.18 ± 0.19	-1.77 ± 0.22
AGCAAGCAAUAUUACGGCGG	-1.29 ± 0.083	0.133 ± 0.11
AGAGAGCAAUAUUACGGGUC	–	-3.11 ± 0.48
AAAGAGCAAUAUUACGGAGC	-2.8 ± 0.39	–
AGGUAGCAAUAUUACGUGUC	-3.313 ± 0.024	-2.07 ± 0.037
GCGUAGCAAUAUUACGACUG	-1.54 ± 0.17	-0.415 ± 0.17
GAGCAGCAAUAUUACGUAUC	-2.06 ± 0.087	-1.44 ± 0.091
CGUCAGCAAUAUUACGGAGU	-3.45 ± 0.17	-2.55 ± 0.18
CGACAGCAAUAUUACGAACA	-2.16 ± 0.14	-0.404 ± 0.11
CAACAGCAAUAUUACGGUCA	-1.16 ± 0.066	-0.339 ± 0.069
CGCCAGCAAUAUUACGUGAG	-1.37 ± 0.078	-1.25 ± 0.11
GCAGAGCAAUAUUACGUGAA	-3.15 ± 0.14	-1.59 ± 0.19
GAUAAGCAAUAUUACGGGCG	-1.41 ± 0.11	-0.837 ± 0.13
CCGAAGCAAUAUUACGCGUA	-3.7 ± 0.23	-2.84 ± 0.2
AAAAAGCAAUAUUACGAGGC	-4.09 ± 0.33	-2.57 ± 0.32
GCUUAGCAAUAUUACGGCGG	-3.5 ± 0.2	-3.14 ± 0.26
GACGAGCAAUAUUACGGUAA	-3.65 ± 0.47	-2.33 ± 0.33
UUGAAGCAAUAUUACGUUGG	-1.18 ± 0.089	-0.305 ± 0.15
GUGCAGCAAUAUUACGUUUA	-0.737 ± 0.11	-0.75 ± 0.12
AAUGAGCAAUAUUACGUGUU	-4.51 ± 0.23	-2.85 ± 0.22
GCAAAGCAAUAUUACGCGGC	-3.95 ± 0.21	-2.43 ± 0.19
GCAGAGCAAUAUUACGUUUG	-3.98 ± 0.27	-2.77 ± 0.25
GAGAAGCAAUAUUACGGCGC	0.341 ± 0.21	-0.241 ± 0.22
AUGGAGCAAUAUUACGUGGG	-3.61 ± 0.37	-0.89 ± 0.27
